Source: PMC11615320 (Communications Biology, 2024)

B1: cytosolic domain of Synaptotagmin-1 (Syt-1), residues 79 to 421, wild type (domain or fragment, rat, UniProt P21707 79-421, looked up)
chain: CKKSLFKKKNKKKGKEKGGKNAINMKDVKDLGKTMKDQALKDDDAETGLTDGEEKEEPKEEEKLGKLQYSLDYDFQNNQLLVGIIQAAELPALDMGGTSDPYVKVFLLPDKKKKFETKVHRKTLNPVFNEQFTFKVPYSELGGKTLVMAVYDFDRFSKHDIIGEFKVPMNTVDFGHVTEEWRDLQSAEKEEQEKLGDIAFSLRYVPTAGKLTVVILEAKNLKKMDVGGLSDPYVKIHLMQNGKRLKKKKTTIKKNTLNPYYNESFSFEVPFEQIQKVQVVVTVLDYDKIGKNDAIGKVFVGYNSTGAELRHWSDMLANPRRPIAQWHTLQVEEEVDAMLAVKK
modifications: AlexaFluor 647 maleimide or AlexaFluor 488 maleimide on Cys79
B2: cytosolic domain (residues 79 to 421) of the Syt-1 F349A mutant (domain or fragment, rat, UniProt P21707 79-421, looked up)
chain: CKKSLFKKKNKKKGKEKGGKNAINMKDVKDLGKTMKDQALKDDDAETGLTDGEEKEEPKEEEKLGKLQYSLDYDFQNNQLLVGIIQAAELPALDMGGTSDPYVKVFLLPDKKKKFETKVHRKTLNPVFNEQFTFKVPYSELGGKTLVMAVYDFDRFSKHDIIGEFKVPMNTVDFGHVTEEWRDLQSAEKEEQEKLGDIAFSLRYVPTAGKLTVVILEAKNLKKMDVGGLSDPYVKIHLMQNGKRLKKKKTTIKKNTLNPYYNESFSFEVPAEQIQKVQVVVTVLDYDKIGKNDAIGKVFVGYNSTGAELRHWSDMLANPRRPIAQWHTLQVEEEVDAMLAVKK
modifications: AlexaFluor 647 maleimide or AlexaFluor 488 maleimide on Cys79

Tests used:
[1] = target: the molecule itself; test: single-molecule TIRF microscopy, kinetics
[2] = target: the molecule itself; test: single-molecule TIRF microscopy, real-time dissociation
[3] = target: the molecule itself; test: single-molecule TIRF microscopy with step-photobleaching and intensity counting

Protein | KD of the large clusters [1] [nM] | KD of the small clusters [1] [nM] | koff [2] [s⁻¹] | stoichiometry N [3] [copies] | Kd [1] [nM]
B1 | 6 ± 2 | 40 ± 8 | 0.0024 ± 0.0004 | 5 ± 2 | –
B2 | – | – | 0.0017 ± 0.0003 | – | 45 ± 15
